The text below walks through data of the DeepSol protein solubility set.

This series is described as follows: soluble on expression in E. coli; label from the status in PepcDB or PDB records.
Consider “MNNGEGEVMDLRDIDLNLLVVFNQLLLDRSVSTAGEKLGLTQPAVSNSLKRLRTALNDDLFLRTSKGMEPTPYALHLAEPVIYALNTLQTALTTRDSFDPFASTRTFNLAMTDIGEMYFMPPLMEALAQRAPHIQISTLRPNAGNLSEDMESGAVDLALGLLPELQTGFFQRRLFRHRYVCMFRKDHPSAKSPMSLKQFSELEHVGVVALNTGHGEVDGLLERAGIKRRMRLVVPHFIAIGPILHSTDLIATVPERFAVRCEVPFGLTTSPHPAKLPDIAINLFWHAKYNRDPGNMWLRQLFVELFSEAHHHHHH”, for which the “soluble on expression in E. coli” value is “soluble”. For the sequence “MSNSTMEATQMKVKLAVDEMIDDLDKTYLRDMQKSMFQCSARCCDNKKTTRDAVENCVESCNDGMKKAQGYLEKELGGLQDQLSRCAMTCYDKLVQQFGPDVNKYSESQKLSFNEKLDSCVSVCADDHIKLIPAIKKRFAKNT”, the “soluble on expression in E. coli” value was “not soluble”. Under “MGSDKIHHHHHHMLMKGVTLRGLEVFEALAKSGSVAQAADITGLSQPAVSQQLRNLEKALGSDLVDHGRRPMVLTSAGRSFLSRTQAILSELRLAQSELTVMDLSHLPALSIGLIDDFDNDLTPRLATILADSLTQCRFKMVTASSHDIHRAMAEKDLHIGVAASTGELRTGVTEYPLVEEPFILVAPRGCITDPDDVGNQLNHLPLLRYARDQLISQQIESHLSRNKMEFDDRFEIGSHLALMAMVARRIGWAITTPLGYMRAVRFHEDIDAYALPFAGFSRRISLFAQSDWPDTVPLEVAGTVRRLTQSQMITPAINRLPWLAGQLRVIEE” stands “not soluble”; under “GMADPKELQDKFWKALKSDRTVMLGLDGVEDGHARPMTAQIEGDSGGPIWFFTSKDNALIAMLGQGRRVIGAFSSKGHDLFASISGSLREDTDPAVVDRLWNPYVAAWYEGGKDDPKLALLRLDADHAQIWLNGSSLLAGIKVLLGV”, “soluble”. In the case of “STNNNPAPLLGFRIAHLLEQEPDTKDLTINVKTEILKHEFGPIKSSFSFSPHKFFEEDVKKQELYFFLIAVGIEEDDAKLMMTDMIFYVLGNIDELRGVLTLLLKVQFPSFEPIEEH”, the “soluble on expression in E. coli” value is on record as “soluble”. Take “MPAPDPMRGDPPHPAPPRLRSPLDPTSGDPLHPAPPRLRSPLDPTSGDPLHPAPPRLRSPLDPTSGDPLHPAPPRLRSPLVLLDGASMWFRSFFGVPSSITAPDGRPVNAVRGFIDSMAVVITQQRPNRLAVCLDLDWRPQFRVDLIPSYKAHRVAEPEPNGQPDVEEVPDELTPQVDMIMELLDAFGIAMAGAPGFEADDVLGTLATRERRDPVIVVSGDRDLLQVVADDPVPVRVLYLGRGLAKATLFGPAEVAERYGLPAHRAGAAYAELALLRGDPSDGLPGVPGVGEKTAATLLARHGSLDQIMAAADDRKTTMAKGLRTKLLAASAYIKAADRVVRVATDAPVTLSTPTDRFPLVAADPERTAELATRFGVESSIARLQKALDTLPG”: the “soluble on expression in E. coli” value is given as “not soluble”.

For the sequence “NSSKSLEAELVRDRQELIDARKKELKAYMMMGVTAIKPLYDSDVNGSNKQAAKEILKAMRFESDGYFFAYDSQGINTLHAIKPSLEGKNLYDLKDENGVAVIAGLIDASQKGDGFLYFSWHKPTINAQAPKLGYAEYLQKWDWVLGTGIYIDDIDQQVAMQRELRTQELNQHT”, the “soluble on expression in E. coli” value is reported as “soluble”. For “MKKRNSMKLASLTVLLAGTTLFTPGFTVKAESTQSISNSSKVHDQKNRNGWKQVMQETIKIGAPGVLAKTSNKGKISSYTAGVADLSTKKPVKSDYRFRIGSVTKTFTATTVLQLVGENRVQLDDSIEKWLPGLIQGNGYDGNQITIRQLLNHTSGIAEYLKSKDADIMNSKKTYTAEEIVKIGLALPSDFSPGKGWSYSNTGYVILGMLIEKITGNSYAEEIEKRIIEPLDLPNTFLPGNSPVIPGKNHARGYVKMEETGELKDITYYNPSLANAAGDMISNADDLNKFFSSLLGGKLLKERELKEMLTTVPIEGKGIGDGYGLGIYETKLPNGVSVWGHGGSIPGFMTFAGGVIGGKHTFAVNVNSLGPVDILTQFDKMMQVEFNK”, the “soluble on expression in E. coli” value is on record as “not soluble”. As to “MKDSKFPYYFSNALLMLVPRFVYRAQAKRLLSTLTEAEKQYCLERVNYYNKCGQPFTVDSREQSYAKIGEFKKTKGWTYFFDTRQVIRYFPSEFTFNYINGDVTHIPNVPSFIKSRPIHGDNQNSVVLKLNQIRHFKFVDDEMSYHDKKDMVAWRGVGFQPHRCKVIQAFYDHPRCNIGQTRPQEGQPWEKGFMSIEEQLQYKFLLCIEGNDVATNLKWAMSSNSLVIMSKPKYETWFMEGKLEAGIHYVEVQDDYSDLPEKMDYYLANEQEALAIIENAHQWVEQFKDKRKERLISLMVADKYFTLSHQQLEHHHHHH”, the “soluble on expression in E. coli” value is reported as “soluble”.

Regarding “GPGSMLTTTDVGGVVRRINVDYKKLKAAYDQNNDSLCLNLVNGLKKQLILLPTFLNPAAASATWLEEVTLTREVLEYAVLVSARLEDLASFELYFNQLSVYYTDIDPTKLEESPLYSLILGLNLVRLLVDDRIAQFHTELEKVPNHIYAPNAYVRFAVLLERYLMEGSYSKLLNSRDQAPSKEYIPIVGMLEKTVRQGVAECIPHSYAKLSFERAQKILMVDSTDAVREIGKQYEWELGKDGASFVFTRREDIAKREVPFQEMLGHHLNFAADLQRIV”, the “soluble on expression in E. coli” value was “soluble”.

For the sequence “MKPKAITFDFWGTLFTEGEAFLEKVMPARYEILLDALSEAGHPVDEAEVREAYRQASLAFEEAWKAGEHMPVYERVARIFALLGAPHDPGLIALTARRLEESSLLAPLKPLPGVEVLKDLAKKYPLAIVSDTGMTPGRLLREHLKRQGLDVFQAFSFSDETGFVKPKPEAFRVALEALGVAPEEALHVGDLPQTDIKGAFGTGYPWAVQYVGLREVNGEVRPTAKVKDHRELLSLLT”, the “soluble on expression in E. coli” value was “soluble”. As to “MGSDKIHHHHHHAKSEMAFAGKGEISPRAITMWDFSWLERRWPGAGYEDWDQVLDELSERGYNAIRIDAYPHLIAENPMKKWLLKEVWNQQDWGSPDMNEVQVQPNLNLFLSKCKERDIKVGLSSWYRLDVDEVCLKLDTPEKLADCWLTILRSIEEDGLLDTILYVDLCNEWPGDSWAPFFAKTYPNVGWGNWYKEESLRWMKTSLEKMRQVYPDMPFLYSFDHGDVKKYEEVDCSFLDLYEHHIWMAQQNGGEFYKLVGYGYNRFLPDDYKNVVKNAERVYRERPGYWQKLLTDKIELMASVARKNRRPLVTTECWGLVDYKDWPLLKWDWVKDLCELGTITAARTGMWVGVATSNFCGPQFAGMWRDVEWHKRLTSIIRSSPLDESLTKNNEVAAKLLKRL”, the “soluble on expression in E. coli” value was “not soluble”. With “MKLIVAVVQDQDSNRLLKTLTDHNFRVTKLATTGGFLKSGNTTFMIGVEDIRVNKALSLIKENGQKRDQMIAPVSPMGGNADSYVPYPVEVEVGGATVFVLPVDEFHQFLEHHHHHH” the entry was “soluble”. With “MANSAGSMTIFVISDSAGETASKLAAASMAQYPTVDFTLIRRTFVKDEDKLVQALEDAKKAEAMVLHTIINDHLVAIANQFFNEHQLFHFDILTPPVAEIERLTGVAPMREPGALHHLNENYFKRIEAMEFAVKYDDGKDPRGFLEADVLLLGVSRTSKTPLSLFLANKNLKVANLPLIPEAHLPKQLFEMDPKKIVGLTNDPNVLNGIRKERMRAYGLPENTSYSDIEKIRRELAFANDLYQKLGCIVIDVASLSIEETASMILNALNLEDHSYYSTETSEDLEHHHHHH” the entry was “not soluble”; with “MKFFIAFACLLAVALANEDANVLRAEQQVNVDGFAYAVELDNSVNVQQKGDLNGEEWVVKGSQSWTSPENVPVSIQYIADANGYQVVSANPPLPTPPPIPEAIQRSLEYIAAHPPSQLEHHHHHH”, “not soluble”.

Take “MGSDKIHHHHHHMGVSHGYVIWPLGSVHLISAIHPDILEKLMTKTLLLYSTVDGQTLAICQRMQTVMTQAGEQVELLSLNDCSGDALTQVDRVLIGASIRYGKHRPELLSFTNTHQDLLNSKMNGFFTVNVVARKPEKNTPATNPYMIKFLQLSAWQPKVLGVFAGKIAYPKYGPFDRFMIRFIMWMTKGPTDTKGTFEFTDWNKVDEFAGSFVKQ”: the “soluble on expression in E. coli” value is “not soluble”. Under “MKKIKALALFSGGLDSLLSMKLLIDQGIEVTALHFNIGFGGNKDKREYFENATAQIGAKLLVCDIREQFFNDVLFKPKYGYGKYFNPCIDCHANMFRNAFYKMLELNADFVLSGEVLGQRPKSQRKEALNQVRKLVREVGEEARFDPVLDRTQAGGKKPQFLDELLLRPMSAKLLEPTFMEKKGFVDREKLLDVSGRGRSRQLQMIKDYGLKYYEKPGGGCLLTDIQVSNKIKNLKEYREMVFEDSVIVKNGRYFVLPHNARLVVARNEEENHKLDIQHPLMDKIELLNCKGPLSLVDKNASKEDKELAGRIALGYAKTLKNQAYLIQIGDEKRELYPLDKENAREYLFALEHHHHHH” stands “soluble”. With “MGNKRVLITGATGFIGGYLVDEALRRQYEVWAAVRPHSDRSRLTDSRIRFVEIDYRDPSDIARLADKIAPEGESAWHLVIHNAGITKARDTSLFREINAEQTKRFLIGLQGAKHCPERFVLMSSMGSYGAPPDDCQPLSSSSVPKPTTAYGESKLLAEQYVQTFVTIPYTIIQPTGVYGPHDQDYLMAIRSVDKGFDFSTGNTPQTLTFIYAEDLASAVFIAAEHPDAAGQKYIVSDGKEYTDIEFGRMIQHLLDRKNVCHLRIPLPLVKATCYIGQKWADISGTLTPLNLDKYAIIAQRNWRCDSSPIRAIGFSPRYNLEQGLAETIRWARTTGQIRR” the entry was “not soluble”; with “MSLRLPPPDARPIRVVCISDTHTLELADMPDGDLLIHAGDLCNDGSAKEIQAAVDWLRKLPHPQKVVICGNHDSYFDIRSRRFEDRDQSLATVSSSTASLRSVDDFDFPHCIDWGDIHYLQHSSVTVTFPPLPQTPSSSSALLASRPRSLTIYGAPQIPAIVPFGPEHAFAYPAHHDAWSGTIPPNTDIMVTHTPPQSHLDLSPVFSTGCPFLLSEAWRIRPALHVFGHVHAAYGREPVYWDEAQKAWERICSSRREGHHHHHH”, “not soluble”.

On to “MERSLYSPDLRIPPANIHNNHLKIDTDRKIRFAITHPEIKKAKGTIVILESYANALEEYFLPMNEISNRGFYTAIFDWFGREESQPDKQKQSRYNYFNINNDINDLNEFLKNIVYCNCPPPYYMLTYGMGGLIALSGLDLINHKFNKMLCISPLFAPFGNKTNSFQHKLTQLLSDIGLGFLPAKGGEKLKQKSTQFMRINEAALSSDFLIKRPTSRWMASVLNAIDSVKKNILNGHLEIPTLFILANQNNIANNIEIRQLCQYTHLTDSITITGAELDTIMHEESYQKQFWIAFDAFIRG”, for which the “soluble on expression in E. coli” value is given as “not soluble”. Under “MNDIIVLTGKVKFTITLDPGVWIFDDRKVDMDAYFSEPAPQPTEAEQEDEEIKKLSAFWDREIQEGAVFPPTLKTERRFLKEKIITGSFGMPFAPFLRNAEPHEDASELVIETEHGETVIPLEKAYDLIFAFSQNGKPLRDDGPVHIYFGDGSNREAPITHVRRLVVR” stands “not soluble”.

For the sequence “MSLALELRQQLKLSQQLVMTPQLQQAIRLLQLSRLELVETVQQELLENPFLEEGMDEGAASSASEASSRKDESAPEAYDRELSRNADWEDYLGEFASSSRQAQVRETELPEEMTAFEARYSARPSLEGHLMWQLRLSRLTEDQKGIGETIIGNIGSSGYLQASVEDIAEMCGADASEVIPVLHAVQRFDPVGVASRTPQECLLIQIEMLGYDRDRVLVELVRDHLEDLETRRYKPLLRKFKLDMDDLKEYLDIIQSLDPMPGSSFGGSDPMFVSPDVFVYKYDDEFVIVLNDDGLPHLQLSSLYDQSLAGVTGKDKDFVQEKVRSASWLIKSLYQRQRTLYKVVESIIKYQRGFFEDGVTRLRPLILKDIADDISMHESTVSRITTNKFVATPHGVFELKFFFNSALELDDGSQVGSESVKALIKKLIGEENPKEPLSDERIGEILKEQLQVNIARRTVAKYRTAMNIPSSSKRKEVFEGHHHHHH”, the “soluble on expression in E. coli” value is given as “soluble”.
